This assay has as its target SARS-CoV-2 RBD (WT) (SARS-CoV-2, UniProt P0DTC2). The assay can be described thus: SPR.

B1: P4A1 (antibody, V domains shown)
VH: EVQLVESGGGLIQPGGSLRLSCAASGFIVSSNYMSWVRQAPGKGLEWVSIIYSGGSTFYADSVKGRFTISRDNSKNTLYLQMNSLRVEDTAVYYCARDLQELGSLDYWGQGTLVTVSS
VL: DIQMTQSPSSVSASVGDRVTITCRASQGISSWLAWYQQKPGKAPKLLIYAASSLQSGVPSRFSGSGSGTDFTLTISSLQPEDFATYYCQEANSFPYTFGQGTKLEIK
For the molecule B1, binding was characterised by a dissociation constant (Kd) of 0.102 nM.

A word on the Kd: it is the equilibrium constant for the complex coming apart. A higher Kd goes with a looser complex.

The values are drawn from publication PMC8113581 (2021).
